Reference: US10005846 (LIFEARC, dated 2018)

Target: T1, rat TG2 (rat, UniProt Q9WVJ6 1-686, limits assumed)
T1 sequence: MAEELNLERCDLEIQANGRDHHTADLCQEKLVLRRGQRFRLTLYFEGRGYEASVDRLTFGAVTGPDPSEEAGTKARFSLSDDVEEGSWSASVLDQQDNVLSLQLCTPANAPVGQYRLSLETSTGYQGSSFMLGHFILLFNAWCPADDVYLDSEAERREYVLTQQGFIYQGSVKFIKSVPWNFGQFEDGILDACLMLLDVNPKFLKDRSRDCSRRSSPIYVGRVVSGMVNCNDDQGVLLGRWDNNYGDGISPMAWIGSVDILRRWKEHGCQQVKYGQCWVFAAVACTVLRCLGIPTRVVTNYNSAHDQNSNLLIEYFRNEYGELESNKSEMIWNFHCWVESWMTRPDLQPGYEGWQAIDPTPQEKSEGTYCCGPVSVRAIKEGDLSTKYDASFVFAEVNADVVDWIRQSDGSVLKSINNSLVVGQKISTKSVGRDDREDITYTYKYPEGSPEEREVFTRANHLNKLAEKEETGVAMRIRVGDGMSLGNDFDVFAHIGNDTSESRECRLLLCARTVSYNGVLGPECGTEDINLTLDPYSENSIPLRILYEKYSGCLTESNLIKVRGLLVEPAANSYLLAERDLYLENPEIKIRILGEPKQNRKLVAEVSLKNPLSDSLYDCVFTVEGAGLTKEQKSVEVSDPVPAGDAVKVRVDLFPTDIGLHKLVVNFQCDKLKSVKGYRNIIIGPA
Test: cell-based or functional assay

IC50, 3H-putrescine incorporation assay: 0.000223 mg/ml of IgG (to inhibit 1 ng of TG2)
IC50 ratio, 3H-putrescine incorporation assay (DH2 on rat TG2 against AB-1 on human TG2): 38 fold less active than AB-1 against human TG2
IC50 ratio, 3H-putrescine incorporation assay (rat TG2 against human TG2, same antibody): ~6 fold less active than against human TG2
B1: DH2 murine monoclonal antibody (antibody, V domains shown)
VH: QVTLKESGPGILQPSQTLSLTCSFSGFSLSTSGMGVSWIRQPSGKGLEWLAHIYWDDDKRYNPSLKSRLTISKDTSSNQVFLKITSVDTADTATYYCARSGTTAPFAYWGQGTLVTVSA
VL: QIVLTQSPAIMSASPGEKVTMTCSASSSVSYMYWYQQKPGSSPRLLIYDTSNLASGVPVRFSGSGSGTSYSLTISRMEAEDAATFYCQQWSSSPLTFGAGTKLELK
notes: Mouse hybridoma IgG; heavy chain amplified with primer MHCG2B, kappa light chain; also called mDH001
